Reference: patent US20240024426A1, “HYPOTENSIVE PHARMACEUTICAL COMPOSITION COMPRISING TRIPLE ACTIVATOR HAVING ACTIVITY FOR ALL OF GLUCAGON, GLP-1, AND GIP RECEPTORS” (HANMI PHARM. CO., LTD., priority 2020, published 2024)
Bridges are numbered along the chain shown (N, C = ends). Where no end group is shown, it is not given here. [ ]: non-standard residue; d: D form. The star is where a group is joined. Acetyl(2-(4-imidazolyl)) = O=C(Cc1c[nH]cn1)*; Aib = CC(C)(N)C(=O)O

Legend:
Assay in all cases: cell-based or functional assay
human GIP receptor = molecular target: T1, human GIP receptor (human, UniProt P48546 22-466)
T1 sequence (looked up): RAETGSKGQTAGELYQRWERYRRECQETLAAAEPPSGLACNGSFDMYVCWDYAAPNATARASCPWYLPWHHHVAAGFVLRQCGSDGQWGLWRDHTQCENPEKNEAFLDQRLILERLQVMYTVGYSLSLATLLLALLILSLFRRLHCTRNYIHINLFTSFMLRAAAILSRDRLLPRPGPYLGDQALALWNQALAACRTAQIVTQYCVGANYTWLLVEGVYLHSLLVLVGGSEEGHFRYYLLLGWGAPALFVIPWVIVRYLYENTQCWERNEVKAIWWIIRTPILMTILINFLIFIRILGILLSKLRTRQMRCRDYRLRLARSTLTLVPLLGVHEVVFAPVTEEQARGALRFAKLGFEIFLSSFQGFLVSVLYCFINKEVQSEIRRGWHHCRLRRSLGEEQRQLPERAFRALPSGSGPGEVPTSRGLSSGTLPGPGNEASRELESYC

human GLP-1 receptor = human GLP-1 receptor (human, UniProt P43220 24-463)
human GCG receptor = human GCG receptor (human, UniProt P47871 26-477)
Chain of human GCG receptor (P47871 26-477): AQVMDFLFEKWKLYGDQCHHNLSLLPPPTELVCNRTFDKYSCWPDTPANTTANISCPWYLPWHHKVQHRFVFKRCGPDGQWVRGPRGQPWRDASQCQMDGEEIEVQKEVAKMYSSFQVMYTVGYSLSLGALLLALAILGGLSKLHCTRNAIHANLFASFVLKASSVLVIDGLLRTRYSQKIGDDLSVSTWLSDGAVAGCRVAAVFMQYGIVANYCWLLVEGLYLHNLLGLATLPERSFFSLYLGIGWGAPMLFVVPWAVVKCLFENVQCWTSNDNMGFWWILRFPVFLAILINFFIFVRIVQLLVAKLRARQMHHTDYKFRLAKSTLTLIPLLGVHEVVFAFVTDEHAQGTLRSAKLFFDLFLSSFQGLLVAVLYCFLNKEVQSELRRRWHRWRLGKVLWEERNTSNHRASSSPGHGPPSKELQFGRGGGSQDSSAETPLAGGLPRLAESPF

Binder: H[Aib]QGTFTSDKSKYLDERACQDFVQWLLDGGPSSGAPPPS [Triple agonist of SEQ ID NO: 40]
- In vitro activity compared with native peptide (%) vs. GIP (human GIP receptor): < 0.1%
- In vitro activity compared with native peptide (%) vs. GLP-1 (human GLP-1 receptor): 75.2%
- In vitro activity compared with native peptide (%) vs. Glucagon (human GCG receptor): < 0.1%

Binder: H[Aib]QGTFTSDYSKYLCEKRQKEFVQWLLNGGPSSGAPPPSG (bridge 16-20) [Triple agonist of SEQ ID NO: 36]
- In vitro activity compared with native peptide (%) vs. GIP (human GIP receptor): 0.2%
- In vitro activity compared with native peptide (%) vs. GLP-1 (human GLP-1 receptor): 37.4%
- In vitro activity compared with native peptide (%) vs. Glucagon (human GCG receptor): 0.39%

Binder: H[Aib]QGTFTSDVSSYLLGQQQKEFIAWLVKGGGPSSGAPPPSC [Triple agonist of SEQ ID NO: 5]
- In vitro activity compared with native peptide (%) vs. GIP (human GIP receptor): < 0.1%
- In vitro activity compared with native peptide (%) vs. GLP-1 (human GLP-1 receptor): 42.1%
- In vitro activity compared with native peptide (%) vs. Glucagon (human GCG receptor): < 0.1%

Binder: Y[Aib]QGTFTSDYSKYLDEKRAKEFVQWLLDHHCSSGQPPPS (bridge 16-20) [Triple agonist of SEQ ID NO: 43]
- In vitro activity compared with native peptide (%) vs. GIP (human GIP receptor): 3.7%
- In vitro activity compared with native peptide (%) vs. GLP-1 (human GLP-1 receptor): 12.6%
- In vitro activity compared with native peptide (%) vs. Glucagon (human GCG receptor): 88.4%

Binder: H[Aib]QGTFTSDYSKYLDGQHAQCFVAWLLAGGGPSSGAPPPS [Triple agonist of SEQ ID NO: 39]
- In vitro activity compared with native peptide (%) vs. GIP (human GIP receptor): < 0.1%
- In vitro activity compared with native peptide (%) vs. GLP-1 (human GLP-1 receptor): 13.9%
- In vitro activity compared with native peptide (%) vs. Glucagon (human GCG receptor): 0.53%

Binder: HGQGTFTSDCSKQLDGQAAQEFVAWLLAGGPSSGAPPPS [Triple agonist of SEQ ID NO: 44]
- In vitro activity compared with native peptide (%) vs. GIP (human GIP receptor): < 0.1%
- In vitro activity compared with native peptide (%) vs. GLP-1 (human GLP-1 receptor): 1.3%
- In vitro activity compared with native peptide (%) vs. Glucagon (human GCG receptor): < 0.1%

Binder: H[Aib]QGTFTSDKSKYLDECAAQDFVQWLLDGGPSSGAPPPS [Triple agonist of SEQ ID NO: 41]
- In vitro activity compared with native peptide (%) vs. GIP (human GIP receptor): < 0.1%
- In vitro activity compared with native peptide (%) vs. GLP-1 (human GLP-1 receptor): 34.3%
- In vitro activity compared with native peptide (%) vs. Glucagon (human GCG receptor): < 0.1%

Binder: H[Aib]QGTFTSDYSKYLDECRQKEFVQWLLNGGPSSGAPPPSG (bridge 16-20) [Triple agonist of SEQ ID NO: 37]
- In vitro activity compared with native peptide (%) vs. GIP (human GIP receptor): 2.2%
- In vitro activity compared with native peptide (%) vs. GLP-1 (human GLP-1 receptor): 236%
- In vitro activity compared with native peptide (%) vs. Glucagon (human GCG receptor): 6.21%

Binder: H[Aib]QGTFTSDVSSYLLGQQQKEFIAWLVKGC [Triple agonist of SEQ ID NO: 4]
- In vitro activity compared with native peptide (%) vs. GIP (human GIP receptor): < 0.1%
- In vitro activity compared with native peptide (%) vs. GLP-1 (human GLP-1 receptor): 8.5%
- In vitro activity compared with native peptide (%) vs. Glucagon (human GCG receptor): < 0.1%

Binder: [Acetyl(2-(4-imidazolyl))][Aib]QGTFTSDKSSYLDERAAQDFVQWLLDGGPSSGAPPPSS [Triple agonist of SEQ ID NO: 38]
- In vitro activity compared with native peptide (%) vs. GLP-1 (human GLP-1 receptor): 2.3%

Binder: Y[Aib]QGTFTSDYSKYLDEKRAKEFVQWLLDHHPSSGQPPPSC (bridge 16-20) [Triple agonist of SEQ ID NO: 42]
- In vitro activity compared with native peptide (%) vs. GIP (human GIP receptor): 7.8%
- In vitro activity compared with native peptide (%) vs. GLP-1 (human GLP-1 receptor): 33.9%
- In vitro activity compared with native peptide (%) vs. Glucagon (human GCG receptor): 206%

Binder: H[Aib]QGTFTSDYSIAMDEIHQKDFVNWLLNTKC (bridge 16-20) [Triple agonist of SEQ ID NO: 35]
- In vitro activity compared with native peptide (%) vs. GIP (human GIP receptor): 1.3%
- In vitro activity compared with native peptide (%) vs. GLP-1 (human GLP-1 receptor): 7.5%
- In vitro activity compared with native peptide (%) vs. Glucagon (human GCG receptor): < 0.1%

Binder: H[Aib]QGTFTSDYSKYLDEKRQKEFVNWLLAQKC (bridge 16-20) [Triple agonist of SEQ ID NO: 34]
- In vitro activity compared with native peptide (%) vs. GIP (human GIP receptor): 0.6%
- In vitro activity compared with native peptide (%) vs. GLP-1 (human GLP-1 receptor): 19.1%
- In vitro activity compared with native peptide (%) vs. Glucagon (human GCG receptor): 0.92%
